Results reported in patent US8236764.

System: Human FV isolated from plasma
Sequence (chain, as listed by the source): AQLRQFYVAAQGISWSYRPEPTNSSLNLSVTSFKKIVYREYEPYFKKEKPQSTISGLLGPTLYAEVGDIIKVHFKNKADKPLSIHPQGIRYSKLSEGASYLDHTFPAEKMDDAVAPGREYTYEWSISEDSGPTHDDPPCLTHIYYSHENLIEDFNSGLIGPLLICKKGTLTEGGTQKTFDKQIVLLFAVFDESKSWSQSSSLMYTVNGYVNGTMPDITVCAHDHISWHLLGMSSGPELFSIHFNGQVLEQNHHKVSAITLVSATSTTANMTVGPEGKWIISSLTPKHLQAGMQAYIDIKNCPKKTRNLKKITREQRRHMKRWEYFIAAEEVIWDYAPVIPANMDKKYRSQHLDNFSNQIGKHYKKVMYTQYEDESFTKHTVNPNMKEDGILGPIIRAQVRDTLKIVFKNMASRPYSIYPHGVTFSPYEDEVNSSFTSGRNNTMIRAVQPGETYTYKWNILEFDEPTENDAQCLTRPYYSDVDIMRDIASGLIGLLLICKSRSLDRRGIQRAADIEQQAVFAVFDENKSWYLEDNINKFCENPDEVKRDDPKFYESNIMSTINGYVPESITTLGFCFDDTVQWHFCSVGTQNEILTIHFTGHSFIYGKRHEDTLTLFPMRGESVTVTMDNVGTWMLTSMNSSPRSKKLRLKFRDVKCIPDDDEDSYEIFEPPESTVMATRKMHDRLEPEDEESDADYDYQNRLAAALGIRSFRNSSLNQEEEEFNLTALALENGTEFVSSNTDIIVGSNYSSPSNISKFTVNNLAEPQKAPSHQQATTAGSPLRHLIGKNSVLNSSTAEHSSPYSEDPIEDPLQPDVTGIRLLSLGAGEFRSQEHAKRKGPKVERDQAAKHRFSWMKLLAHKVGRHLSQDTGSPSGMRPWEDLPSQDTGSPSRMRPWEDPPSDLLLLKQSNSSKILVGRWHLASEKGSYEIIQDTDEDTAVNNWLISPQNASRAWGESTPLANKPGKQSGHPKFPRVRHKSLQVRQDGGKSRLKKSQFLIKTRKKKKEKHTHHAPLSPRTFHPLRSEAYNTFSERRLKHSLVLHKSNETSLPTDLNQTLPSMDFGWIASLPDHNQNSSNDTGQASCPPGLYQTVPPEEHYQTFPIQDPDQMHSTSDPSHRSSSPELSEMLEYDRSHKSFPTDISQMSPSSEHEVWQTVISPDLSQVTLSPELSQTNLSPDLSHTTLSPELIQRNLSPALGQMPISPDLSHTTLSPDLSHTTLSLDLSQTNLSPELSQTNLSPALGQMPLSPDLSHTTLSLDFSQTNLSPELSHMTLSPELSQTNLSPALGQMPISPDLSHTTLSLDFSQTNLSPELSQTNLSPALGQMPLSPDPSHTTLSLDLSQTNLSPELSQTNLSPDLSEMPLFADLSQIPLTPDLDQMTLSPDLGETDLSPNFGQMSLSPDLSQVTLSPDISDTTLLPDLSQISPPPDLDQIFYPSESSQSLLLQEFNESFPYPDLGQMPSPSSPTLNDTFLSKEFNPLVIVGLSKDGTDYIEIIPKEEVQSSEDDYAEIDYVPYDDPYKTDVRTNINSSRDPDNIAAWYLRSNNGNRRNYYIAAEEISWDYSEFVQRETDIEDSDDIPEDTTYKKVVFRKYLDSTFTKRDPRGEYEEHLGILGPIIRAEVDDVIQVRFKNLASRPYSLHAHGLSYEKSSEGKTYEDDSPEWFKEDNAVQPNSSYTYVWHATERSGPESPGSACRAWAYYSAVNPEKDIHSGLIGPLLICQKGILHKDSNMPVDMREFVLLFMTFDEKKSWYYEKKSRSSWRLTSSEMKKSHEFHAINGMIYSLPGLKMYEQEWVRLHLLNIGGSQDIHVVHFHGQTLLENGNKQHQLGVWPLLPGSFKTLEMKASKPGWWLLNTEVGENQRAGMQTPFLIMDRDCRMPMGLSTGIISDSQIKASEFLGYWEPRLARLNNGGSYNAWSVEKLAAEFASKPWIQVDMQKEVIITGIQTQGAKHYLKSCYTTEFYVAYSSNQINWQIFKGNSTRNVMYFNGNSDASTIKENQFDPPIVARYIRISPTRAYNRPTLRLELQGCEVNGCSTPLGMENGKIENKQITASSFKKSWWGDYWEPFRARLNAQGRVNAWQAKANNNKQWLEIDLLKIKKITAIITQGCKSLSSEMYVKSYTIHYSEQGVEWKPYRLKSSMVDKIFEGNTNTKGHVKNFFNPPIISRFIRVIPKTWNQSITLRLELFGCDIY

Substance	activation of FV (cofactor activity by PT-based assay using FV-deficient plasma; cleavage by SDS-PAGE)
human thrombin	murine thrombin activates human FV in a similar fashion to human thrombin
murine thrombin	murine thrombin activates human FV in a similar fashion to human thrombin
